Data as given in the supplement of paper PMC9732359.
± gives the uncertainty stated by the source.

Experiment: protein stability index of a GFP-peptide fusion (yeast GPS) (PSI 1-4); higher = more stable; sorted into four equal gates, so the index is relative within each strain
Procedure, shortened: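 The protein stability index combines read frequencies across sorting gates, each weighted by its gate number and then summed. To obtain those frequencies, a pooled yeast library of GFP fusions to tiled 17-residue yeast protein peptides, on a plasmid also expressing Cherry, was grown to mid-log phase in leucine-free medium. The cells were sorted into four equal gates by GFP/Cherry ratio before plasmid amplification by PCR and Illumina sequencing.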

Sequence | protein stability index (doa10∆) | protein stability index (pdr5∆) | protein stability index (san1∆) | protein stability index (ubr1∆)
ELVIRLEKDAADCQAEL [YIL149C/MLP2] | 2.93 ± 0.25 | 3.05 ± 0.18 | 3.18 ± 0.22 | 3.07 ± 0.22
ELVKSYSWLLFEASCME [YJR042W/NUP85] | 2.96 ± 0.28 |  | 3.44 ± 0.16 | 2.41 ± 0.19
EMERIVKNLTKYLSDIM [SRP68] | 2.76 ± 0.25 | 2.53 ± 0.099 |  | 2.06 ± 0.074
ENDVKPISIEAPQFYRY [SWI3] | 2.55 ± 0.038 | 2.14 ± 0.039 | 2.2 ± 0.055 | 1.95 ± 0.035
ENGERKLYDAKRYTSEG [YMR129W/POM152] | 3.35 ± 0.12 | 2.92 ± 0.1 | 2.96 ± 0.1 | 3.29 ± 0.085
ENIIIVGGTTSISGFKE [ARP9] | 2.13 ± 0.092 | 2.2 ± 0.06 | 2.64 ± 0.07 | 2.88 ± 0.054
ENKVMLPRCSKEEFRLM [RRI2] | 1.8 ± 0.06 | 2.1 ± 0.076 | 2.06 ± 0.088 | 1.7 ± 0.048
ENLVQGNGNVSESDIIN [YCG1] | 3.78 ± 0.29 |  |  | 
ENTPEPDLPALEASYSK [SMC4] | 2.36 ± 0.12 | 2.61 ± 0.091 | 3.18 ± 0.068 | 2.99 ± 0.12
ENVLAIGIAGAHRVRDL [SKI6] | 1.97 ± 0.065 | 2.21 ± 0.059 | 2.1 ± 0.084 | 1.74 ± 0.052
ENVQIGEDFMEVDYEDK [SRB4] | 3.48 ± 0.13 | 1.97 ± 0.17 |  | 2.2 ± 0.084
EPFTILGAVAGLIPYPH [RET1] | 2.17 ± 0.063 | 2.13 ± 0.051 | 2.13 ± 0.078 | 1.83 ± 0.043
EPKLFRMRIFASNEVIA [RPL20A] | 2.19 ± 0.087 | 1.97 ± 0.054 | 1.82 ± 0.06 | 2.28 ± 0.036
EQERKELEKYNELERNR [SMC3] | 3.14 ± 0.14 | 3.05 ± 0.18 | 3.2 ± 0.11 | 3.24 ± 0.091
EQFLETDSDFAKYHAKL [SRP68] | 2.83 ± 0.07 | 2.94 ± 0.067 | 2.79 ± 0.05 | 2.77 ± 0.089
EQFPFYLHDNASKVLLK [IRR1] | 2.45 ± 0.081 | 2.47 ± 0.065 | 1.91 ± 0.075 | 2.41 ± 0.052
EQQVAEEATTEEAGEEE [RPS0A] | 2.89 ± 0.14 | 2.82 ± 0.24 | 2.6 ± 0.19 | 
EQSKEVGDVVGGALDNP [BRN1] | 3.29 ± 0.091 | 3.54 ± 0.078 | 3.44 ± 0.057 | 3.38 ± 0.058
EQVRKMYQEWEDETVKV [NSL1] | 3.7 ± 0.09 | 3.52 ± 0.083 | 3.406 ± 0.032 | 3.58 ± 0.077
EQYIQELDKREDMIDQV [SMC3] | 3.23 ± 0.065 | 3.03 ± 0.084 | 3.01 ± 0.072 | 3.29 ± 0.15
EQYTKKINSWDQVLVKG [YJL041W/NSP1] | 1.72 ± 0.095 | 2.29 ± 0.1 |  | 1.48 ± 0.087
ERAARVVKGRVEKTLLS [RPO31] | 3.37 ± 0.19 | 3.27 ± 0.18 |  | 3.5 ± 0.1
EREIMNDHSKSANPKKT [SWI3] | 3.29 ± 0.077 | 3.3 ± 0.084 | 3.3 ± 0.16 | 3.31 ± 0.065
ERELISNIEQTESLRVE [YIL149C/MLP2] | 3.34 ± 0.063 | 3.47 ± 0.078 | 3.18 ± 0.041 | 3.37 ± 0.07
EREQCRAGGAAASLIMP [PRE7] | 3.02 ± 0.24 | 2.92 ± 0.19 | 3.43 ± 0.18 | 2.89 ± 0.1
ERIINVGVIGPLHSGKT [SNU114] | 2.87 ± 0.12 | 2.57 ± 0.11 |  | 2.94 ± 0.09
ERKEREDFQKRQQKLLE [SWI1] | 3.27 ± 0.073 | 3.32 ± 0.06 | 3.34 ± 0.049 | 3.2 ± 0.048

Sequence | protein stability index (doa10∆) | protein stability index (pdr5∆) | protein stability index (san1∆) | protein stability index (ubr1∆)
ERKSKTYVITKNGKIYL [RET1] | 2.76 ± 0.051 | 2.54 ± 0.057 | 2.5 ± 0.059 | 2.47 ± 0.035
ERQIFLEACIVRIMKAK [CDC53] | 1.64 ± 0.051 | 1.69 ± 0.048 | 1.48 ± 0.076 | 1.61 ± 0.037
ERRLQTQVYKLGLAKSV [RPS9A] | 1.29 ± 0.067 | 1.23 ± 0.056 | 1.2 ± 0.18 | 1.23 ± 0.064
ERSAGNIVQVFKKAAPS [RPB2] | 2.6 ± 0.12 | 2.53 ± 0.14 | 2.52 ± 0.11 | 2.91 ± 0.27
ERVWNICLYSSFQKNSL [AAR2] | 1.8 ± 0.059 | 2.01 ± 0.046 | 2.18 ± 0.1 | 2.02 ± 0.034
ESCEDILDLKEFDRRIL [RTT102] | 2.78 ± 0.16 | 3.37 ± 0.16 | 3.23 ± 0.072 | 3.07 ± 0.092
ESDAPPKSTAPIFSFGK [YOR098C/NUP1] | 2.72 ± 0.044 | 2.58 ± 0.044 | 2.71 ± 0.042 | 2.76 ± 0.038
ESDYEPNNETSVLSSKP [SIR3] | 2.99 ± 0.089 | 3.08 ± 0.11 | 3.02 ± 0.11 | 3.01 ± 0.07
ESFPDDIPLAKALDNAC [CDC53] | 2.58 ± 0.07 | 2.97 ± 0.058 | 2.67 ± 0.055 | 2.8 ± 0.045
ESIASSNTYKEERSNNL [MCD1] | 3.03 ± 0.13 | 3.37 ± 0.14 | 3.25 ± 0.06 | 3.39 ± 0.075
ESKDLLRASFNKLSSIL [SRB4] | 1.08 ± 0.097 | 1.33 ± 0.074 | 1.22 ± 0.16 | 1.1 ± 0.094
ESLKKELQIFKTANSSS [YIL149C/MLP2] | 2.78 ± 0.065 | 2.93 ± 0.049 | 2.9 ± 0.059 | 2.61 ± 0.042
ESLPQYVDFVPMYKELW [POP4] | 2.12 ± 0.061 | 2.45 ± 0.056 | 2.5 ± 0.074 | 2.64 ± 0.048
ESNNPSHDASRSLASFE [SIR4] | 2.97 ± 0.1 | 3.14 ± 0.12 | 3.02 ± 0.072 | 3.02 ± 0.17
ESSDFGAIILTKMDGHA [SRP54] | 2.42 ± 0.1 | 2.74 ± 0.094 | 2.91 ± 0.11 | 2.8 ± 0.077
ESSELNKDSIEECGRTI [CSN12] | 3.46 ± 0.18 | 2.92 ± 0.16 | 3.42 ± 0.089 | 3.28 ± 0.15
ESYDAALSLHREILCYS [FAS2] | 2.18 ± 0.022 | 2.151 ± 0.019 | 2.28 ± 0.028 | 2.28 ± 0.017
ETAKKITFHPKIRARSI [SMC2] | 2.91 ± 0.058 | 2.95 ± 0.06 | 2.92 ± 0.045 | 2.85 ± 0.05
ETAQAINGWELTKAQKY [RPL17A] | 3.27 ± 0.055 | 3.35 ± 0.049 | 3.18 ± 0.034 | 3.28 ± 0.043
ETDEYISYTSHIEGVVI [RPN1] | 3.13 ± 0.1 | 3.44 ± 0.17 |  | 3.08 ± 0.08
ETDHKTNENGETDDNIE [SRB4] | 3.01 ± 0.22 | 3.57 ± 0.15 | 3.08 ± 0.083 | 3.21 ± 0.089
ETEIKDLTQLLEKERSI [SMC4] | 3.34 ± 0.079 | 3.15 ± 0.048 | 3.24 ± 0.051 | 3.25 ± 0.039
ETEQEYSPSNEISISFD [YDL116W/NUP84] | 2.65 ± 0.058 | 2.89 ± 0.067 | 2.52 ± 0.059 | 2.98 ± 0.048
ETIENVKLQMIKFGGLI [ECM29] | 3.53 ± 0.1 | 3.37 ± 0.17 | 3.18 ± 0.11 | 3.26 ± 0.07
ETLENGETRMKMLNEFV [SMC2] | 2.87 ± 0.12 | 3.06 ± 0.24 | 3.17 ± 0.15 | 
ETLGLKYLGLKPGSIDA [FAS1] | 3.24 ± 0.13 | 3.24 ± 0.097 | 3.03 ± 0.076 | 3.22 ± 0.095
